This is an account of results in publication PMC10373554 (Journal of Virology, 2023).

The target of this assay is recombinant RBD protein of SARS-CoV (SARS-CoV (2003), strain of the bought …, UniProt P59594). In words: SPR. On the technique in general: Surface plasmon resonance follows binding to a sensor surface in real time, without labels.

B1: S2H97 (antibody, V domains shown)
VH: QVRLVQSGAEVKKSGESLKISCKGSGYSFTSYWIGWVRQMPGKGLEWMGIIYPGDSDTRYSPSFQGQVTISADKSISTVYLQWSSLKASDTAMYYCARQWSHYTYDYYYWGQGTLVTISS
VL: QSVLTQPASVSGSPGQSITISCTGISSDVGGYNSVSWYQQHPGKAPKLMIYDVTNRPSGVSNRFSGSKSGNTASLTISGLQAEDEADYYCSSYTSSSTPPYVFGTGTKVSVL
Turning to B1, the binding result is “binds”.
